B1: 70nt poly(dT) (ssDNA)
DNA: TTTTTTTTTTTTTTTTTTTTTTTTTTTTTTTTTTTTTTTTTTTTTTTTTTTTTTTTTTTTTTTTTTTTTT

Columns and labels:
[1] = biological target: T1, E. coli single-stranded DNA binding protein (SSB) (Escherichia coli, UniProt P0AGE0 1-178); assay: competition
[2] = biological target: T1, E. coli single-stranded DNA binding …; assay: single-molecule free solution hydrodynamic separation
[3] = biological target: T1, E. coli single-stranded DNA binding …; assay: competition; remark: listed apart in the source
[4] = biological target: T1, E. coli single-stranded DNA binding …; assay: single-molecule free solution hydrodynamic separation; remark: listed apart in the source

T1 sequence (P0AGE0 whole entry): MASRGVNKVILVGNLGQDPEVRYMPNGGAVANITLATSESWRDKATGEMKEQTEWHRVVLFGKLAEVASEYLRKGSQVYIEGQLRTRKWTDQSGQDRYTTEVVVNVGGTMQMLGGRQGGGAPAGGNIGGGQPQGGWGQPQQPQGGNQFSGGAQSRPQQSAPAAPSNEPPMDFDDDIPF

| Binder | Kd [1] [µM] | Kd [2] [µM] | Kd [3] [µM] | Kd [4] [µM] |
| --- | --- | --- | --- | --- |
| TTTTTTTTTTTTTTTTTTTTTTTTTTTTTTTTTTT (ssDNA) [35nt poly(dT)] | 0.0117 ± 0.0006 | 0.01 ± 0.0005 |  |  |
| B1 |  |  | 0.0221 ± 0.0015 | 0.0217 ± 0.0002 |
